The values below come from PMC3507621.

Assay [1] addresses T1, inter-α-trypsin inhibitor (IαI), P19827;P19823.
T1 chain 1: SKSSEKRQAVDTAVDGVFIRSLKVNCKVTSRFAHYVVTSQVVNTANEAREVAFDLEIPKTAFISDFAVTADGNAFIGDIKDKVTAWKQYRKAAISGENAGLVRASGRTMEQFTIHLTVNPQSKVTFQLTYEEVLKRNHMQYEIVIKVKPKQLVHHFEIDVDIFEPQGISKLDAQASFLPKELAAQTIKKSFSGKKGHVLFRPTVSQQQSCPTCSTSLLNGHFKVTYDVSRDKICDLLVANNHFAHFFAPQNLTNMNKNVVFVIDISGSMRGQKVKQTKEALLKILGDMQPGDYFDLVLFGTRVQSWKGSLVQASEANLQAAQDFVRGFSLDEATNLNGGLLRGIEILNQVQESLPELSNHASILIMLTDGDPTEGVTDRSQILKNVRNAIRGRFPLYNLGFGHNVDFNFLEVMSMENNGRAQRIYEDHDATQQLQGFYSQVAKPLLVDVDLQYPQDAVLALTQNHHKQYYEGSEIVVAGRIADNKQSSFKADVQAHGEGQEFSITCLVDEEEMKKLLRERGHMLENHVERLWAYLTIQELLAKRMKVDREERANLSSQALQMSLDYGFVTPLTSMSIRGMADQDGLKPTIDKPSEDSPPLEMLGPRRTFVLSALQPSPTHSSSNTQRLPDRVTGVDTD
T1 chain 2: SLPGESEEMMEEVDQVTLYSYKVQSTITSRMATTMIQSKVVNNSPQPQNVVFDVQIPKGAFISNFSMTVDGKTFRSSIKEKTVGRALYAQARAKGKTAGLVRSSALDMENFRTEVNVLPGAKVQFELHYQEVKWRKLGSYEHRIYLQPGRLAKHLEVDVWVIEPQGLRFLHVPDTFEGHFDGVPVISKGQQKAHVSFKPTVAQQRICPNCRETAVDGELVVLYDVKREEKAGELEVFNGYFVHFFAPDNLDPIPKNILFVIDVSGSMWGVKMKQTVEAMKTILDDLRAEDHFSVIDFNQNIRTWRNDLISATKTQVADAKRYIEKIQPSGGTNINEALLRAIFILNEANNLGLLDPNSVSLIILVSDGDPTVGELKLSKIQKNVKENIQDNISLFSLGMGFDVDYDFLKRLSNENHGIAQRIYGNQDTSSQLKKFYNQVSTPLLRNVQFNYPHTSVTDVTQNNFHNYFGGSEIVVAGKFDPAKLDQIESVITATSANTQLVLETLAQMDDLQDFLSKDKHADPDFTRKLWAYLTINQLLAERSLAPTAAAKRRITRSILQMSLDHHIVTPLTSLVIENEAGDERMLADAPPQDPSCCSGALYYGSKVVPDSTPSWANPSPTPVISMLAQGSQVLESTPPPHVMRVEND
T1 chain 3: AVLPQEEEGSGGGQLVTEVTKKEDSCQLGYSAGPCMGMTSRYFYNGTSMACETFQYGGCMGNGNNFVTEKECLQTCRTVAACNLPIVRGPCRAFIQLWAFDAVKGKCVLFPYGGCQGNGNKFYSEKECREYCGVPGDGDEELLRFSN
Briefly: ELISA. The note with it: chain shown with the change, pH 7.4, PBS with Ca2+ and Mg2+, read off a plot. For orientation: ELISA stands for enzyme-linked immunosorbent assay.

For assay [2], the target named is T1, inter-α-trypsin inhibitor (IαI), …. Briefly: competition ELISA (bPTX3 detected with HRP-conjugated streptavidin). The note with it: chain shown with the change, wells coated with IαI, read off a plot.
Setting [3] is: IαI 100 nM (est. from x axis), parent: est. 2.6.
[4] abbreviates: IαI about 1.7 nM (est. from x axis), parent: est. 1.0.
The mark [5] stands for this setting: IαI about 6 nM (est. from x axis), parent: est. 2.2.
[6] abbreviates: IαI about 46 nM (est. from x axis), parent: est. 2.7.
Setting [7] is: IαI about 13 nM (est. from x axis), parent: est. 2.5.

B1: wild type recombinant N-terminal region of PTX3 (N_PTX3), P26022 C47S; C49S; C103S (protein)
chain: ENSDDYDLMYVNLDNEIDNGLHPTEDPTPSASGQEHSEWDKLFIMLENSQMRERMLLQATDDVLRGELQRLREELGRLAESLARPSAPGAPAEARLTSALDELLQATRDAGRRLARMEGAEAQRPEEAGRALAAVLEELRQTRADLHAVQGWATG
Turning to B1, the response is 2.6 O.D. (450nm) in assay [1] (setting [3]), 0.45 O.D. (450nm) in assay [1] (setting [4]), 1.3 O.D. (450nm) in assay [1] (setting [5]) and 2.5 O.D. (450nm) in assay [1] (setting [6]). Moreover, the other: bPTX3 bound to IαI (% of bPTX3 binding in the absence of competitors) in assay [2] (competitor about 0.24 nM (est. from x axis), parent: est. 99) is 99%; in assay [2] (competitor about 2.5 nM (est. from x axis), parent: est. 98), 96%; in assay [2] (competitor about 24 nM (est. from x axis), parent: est. 80), 82%; in assay [2] (competitor about 240 nM (est. from x axis), parent: est. 38), 59%; in assay [2] (competitor about 2400 nM (est. from x axis), parent: est. 11), 30%.

B2: wild type recombinant N-terminal region of PTX3 (N_PTX3), P26022 C103S (protein)
chain: ENSDDYDLMYVNLDNEIDNGLHPTEDPTPCACGQEHSEWDKLFIMLENSQMRERMLLQATDDVLRGELQRLREELGRLAESLARPSAPGAPAEARLTSALDELLQATRDAGRRLARMEGAEAQRPEEAGRALAAVLEELRQTRADLHAVQGWATG
For B2, the response in assay [1] (setting [3]) is 2.6 O.D. (450nm); in assay [1] (setting [4]), 0.28 O.D. (450nm); in assay [1] (setting [5]) it was 1.1 O.D. (450nm); in assay [1] (setting [7]), 1.7 O.D. (450nm); in assay [1] (setting [6]), 2.5 O.D. (450nm).

B3: wild type recombinant N-terminal region of PTX3 (N_PTX3), P26022 C47S; C49S (protein)
chain: ENSDDYDLMYVNLDNEIDNGLHPTEDPTPSASGQEHSEWDKLFIMLENSQMRERMLLQATDDVLRGELQRLREELGRLAESLARPCAPGAPAEARLTSALDELLQATRDAGRRLARMEGAEAQRPEEAGRALAAVLEELRQTRADLHAVQGWATG
Turning to B3, the response in assay [1] (setting [3]) is 2.6 O.D. (450nm); in assay [1] (setting [4]) it was 0.24 O.D. (450nm); in assay [1] (setting [5]), 0.86 O.D. (450nm); in assay [1] (setting [7]), 1.4 O.D. (450nm); in assay [1] (setting [6]) it was 2.4 O.D. (450nm).
